The target in experiment [1] is T1, human EGFR (epidermal growth factor receptor) on cells (human, UniProt P00533 25-1210). Put plainly: cell-based or functional assay.
The target in experiment [2] is T1, human EGFR (epidermal growth factor …). Put plainly: cell-based or functional assay. This is another data set of the same source.
For experiment [3] the target is unchanged. The experiment can be described thus: cell-based or functional assay. The source holds these as a separate data set.
The target in experiment [4] is T2, recombinant human extracellular domain of EGFR fused to an IgG1 Fc (human, UniProt P00533 25-645).
T2 construct: Bought from R&D Systems; captured on anti-human Fc IgG in the SPR assays; also called EGFR-Fc; recombinant EGFR extracellular domain; not shown: IgG1 Fc of the bought fusion protein (R&D Systems)
The experiment can be described thus: SPR (ProteOn), EGFR-Fc captured by anti-human Fc. The protocol: Select EGFR-binding FN3 domains were screened to identify those with slow off-rates (koff) in binding to EGFR-Fc on a ProteOn XPR-36 instrument (Bio-Rad) to facilitate selection of high affinity binders. Goat anti-human Fc IgG (R&D systems), at a concentration of 5 μg/mL, was directly immobilized via amine coupling (at pH 5.0) on all 6 ligand channels in horizontal orientation on the chip with a flow rate of 30 μL/min in PBS containing 0.005% Tween-20. The immobilization densities averaged about 1500 Response Units (RU) with less than 5% variation among different channels. EGFR-Fc was captured on the anti-human Fc IgG surface to a density around 600 RU in vertical ligand orientation. All tested FN3 domains were normalized to a concentration of 1 μM and tested for their binding in horizontal orientation. All 6 analyte channels were used for the FN3 domains to maximize screening throughput. The dissociation phase was monitored for 10 minutes at a flow rate of 100 μL/min. The inter-spot binding signals were used as references to monitor non-specific binding between analytes and the immobilized IgG surface, and were subtracted from all binding responses. […]
Binding affinity of selected EGFR-binding FN3 domains to recombinant EGFR extracellular domain was further characterized by surface Plasmon resonance methods using a Proteon Instrument (BioRad). […]

Experiment [5] concerns the target T1, human EGFR (epidermal growth factor …). The experiment can be described thus: cell-based or functional assay. This is another data set of the same source.
The target is the same in experiment [6]. Put plainly: A431 cell EGF competition (biotinylated EGF).
For experiment [7] the target is unchanged. The experiment can be described thus: A431 cell binding, anti-His-Alexa488.

Consider 2 molecules from US20140155325A1 (Janssen / Centocor, published 2014).

B1: P53A1R5-17 (designed binder, not shown: small tags and cut ends)
chain: LPAPKNLVVSEVTEDSLRLSWADPHGFYDSFLIQYQESEKVGEAINLTVPGSERSYDLTGLKPGTEYTVSIYGVHNVYKDTNMRGLPLSAEFTT
Turning to B1, the “IC50, inhibition of EGF-stimulated EGFR phosphorylation (relative pEGFR, RCLU) in H292 cells, +50 ng/mL EGF [+50ng/mL EGF), IC50 table]” value in experiment [1] came out at 151 nM. For the same molecule, the “IC50, inhibition of EGF-stimulated EGFR phosphorylation (relative pEGFR, RCLU) in H441 cells, +10 ng/mL EGF [+10ng/mL EGF), IC50 table]” value in experiment [2] is 70.2 nM. In addition, in experiment [3], the “IC50, inhibition of EGF-stimulated EGFR phosphorylation (relative pEGFR, RCLU) in H596 cells, +2.5 ng/mL EGF [+2.5ng/mL EGF), IC50 table]” value was 35.4 nM.

B2: P54AR4-47 (designed binder)
chain: LPAPKNLVVSEVTEDSLRLSWWDPFSFYDSFLIQYQESEKVGEAINLTVPGSERSYDLTGLKPGTEYTVSIYGVHNVYKDTNMRGLPLSAEFTT
Broadly, the Kd is the concentration at which binding is half-saturated. Broadly, the IC50 is the concentration needed to halve the response being measured. Read a low IC50 as inhibition by little substance. As usually defined, the EC50 is the concentration that produces a half-maximal response. The low end stands for a more potent agent, the high end for a less potent agent. In the case of B2, the Kd in experiment [4] amounted to 2.51 nM. Further, in experiment [5], the “NCI-H292 Growth IC50” value is 44 nM; the “NCI-H322 Growth IC50” value was 39 nM; the “Phospho-EGFR IC50 (EGF-stimulated, A431 cells)” value worked out at 295 nM. The molecule also showed an IC50 in experiment [6] of 7.1 nM. Moreover, a half-maximal response in experiment [7] (EC50) required 8.6 nM.
